The supplement of paper PMC9170038

System: MS2 coat protein
Experiment: apparent KD of MS2 coat protein; designed switch direction (-1 OFF switch, 1 ON switch): -1; higher = weaker reporter binding
Summary of the method: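 Designed RNA switches with common flanks were made on Illumina chips by stalled E. coli RNA polymerase. Titration with SNAP-549-labelled MS2 coat protein doubled from 0.7 or 1.5 nM up to 3 µM. Apparent KD is each design's median over clusters after curve-fitting normalised fluorescence.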

[1] = input ligand: microRNA oligo, concentration not stated
[2] = Eterna round: R95, input ligand: microRNA oligo, concentration not stated
[3] = Eterna round: R95, input ligand: FMN 200 uM
[4] = Eterna round: R95, input ligand: none

Row | Sequence | apparent KD of MS2 coat protein (input ligand: FMN 200 uM) [nM] | apparent KD of MS2 coat protein (input ligand: none) [nM] | apparent KD of MS2 coat protein [2] [nM] | also measured
1 | GCACGGAUGGUAGGAUAUCUGUGCGAUUAGCUCAGAGAAGGACCACAUGAGGAUCACCCAUGUACCUCAAUUAGCUUUCCGUGC [Eli exng1 - 020] (Eterna round: R96, puzzle: Exclusion NG 1) | 40.7 | 15.2 | – | apparent KD of MS2 coat protein [1]: 11 nM
2 | CUUUUGUGAGGAUAUCAGUAGUAAAUUAAUAAAAUUACUACUGAGAAGGCACAUGAGGAUCACCCAUGUUCCUC [salish99_ex3_r3_078] (puzzle: Exclusion 4) | – | – | 41.9 | –
3 | GUGAGGUAAGGAUAUAGUAGUGAAGGUAAGAUAUGAGAAUGCUAGAAGGUACAUGAGGAUCACCCAUGUUCGGG [JR_Exclu4_Sub089] (puzzle: Exclusion 4) | – | – | 173 | –
4 | GUGUAACUACACGGGCUCAACAUGAGGAUCACCCAUGUCAUACACGCAAGCUUUUCGCUUGUCUUAUCUGUCCGUGA [Mainesleed] (puzzle: Sensor v3, turn-off variant 1) | – | – | 14.2 | apparent KD of MS2 coat protein [3]: 12.5 nM; apparent KD of MS2 coat protein [4]: 11.3 nM
5 | CGCACGUAAGGAUAUACAUGAGGAUCACCCAUGUGUAAAUACUGCAACGUGGUGAAUAGUAGAAGGUACGAUGC [Eternabot (L2) Solution 56] (Eterna round: R97, puzzle: Exclusion 3) | 55.5 | 18.3 | – | –
6 | AUUUAGCAAGCCAGAUCCUACAUGAGGAUCACCCAUGUAGUUCGUCUUAUUUGAAGACAACACAAAAGUGUUGUCUU [Omei Mir OFFv1 B6] (Eterna round: R97, puzzle: Sensor, turn-off variant 1) | 15.7 | 14 | – | –
7 | GGGCUGUCAGGAUAUACAUGAGGAUCACCCAUGUCGAGCUGUGAUAGGGCAAGAGUAGGUAGAAGGGACGAGAG [JR_Exclu3_Sub042] (puzzle: Exclusion 3) | – | – | 30.5 | –
8 | AGGCGUGCUGAGGAUAUACUACCGGGUGCGAUAGUAGAAGGUAGCACAUGAGGAUCACCCAUGUGGUCAGAUGC [Qureaor] (puzzle: Exclusion 6) | – | – | 20 | apparent KD of MS2 coat protein [3]: 56.3 nM; apparent KD of MS2 coat protein [4]: 23.6 nM
9 | AAUUCACAUGAGGAUCACCCAUGUCAGGAUAUGGUUUCACGGGUUUCGGUGCGUGAGGCCAGAAGGGACAGCUA (puzzle: Exclusion 1) | – | – | 51.5 | –
10 | UCUUAACAUGAGGAUCACCCAUGUGAGGAUAUGAUGCAGCAGUGGUCUACGCUGUGCAUCAGAAGGUACAUGGG (puzzle: Exclusion 1) | – | – | 26.8 | –
11 | GGAUCGAGUGUGAGGAUAUGCUGGUCCUUGGAUCAGCAGAAGGCACAUGAGGAUCACCCAUGUGAAGACGAUCC [Mat - Exclusion 4 - JL Mod - D73] (Eterna round: R96, puzzle: Brourd's mod of Exclusion 4) | 230 | 28.7 | – | apparent KD of MS2 coat protein [1]: 23.1 nM
12 | UUAAUGUGAGGAUAUCAGGUGUGCUAGCGUACUGGUACAUCUGAGAAGGCACAUGAGGAUCACCCAUGUUCCUU [JL-ex4-3.27 Brourd mod] (Eterna round: R96, puzzle: Exclusion 4) | 59.4 | 20.6 | – | apparent KD of MS2 coat protein [1]: 15.9 nM
13 | GCCUCACUUGAGGAUCACCCAAGUCAGGAUAUCUACAGGCCGGCCAUACCAGCCUGCAAGAGAAGGGACUCUAA [Isriqu] (Eterna round: R97, puzzle: Exclusion 1) | 245 | 32.3 | – | –
14 | UUAAUGUGAGGAUAUCAGGUGUGCUAGCGUACUGGUACAUCUGAGAAGGCACAUGAGGAUCACCCAUGUUCCUU [JL-ex4-3.27 Brourd mod] (puzzle: Exclusion 4) | – | – | 16.2 | –
15 | CCAAGCUGUGUGAGGAUAUGCUGGUCGAAAGAUCAGCAGAAGGCACAUGAGGAUCACCCAUGUGAAAAGCUUGG [Mat - Exclusion 4 - JL Mod - D93] (puzzle: Brourd's mod of Exclusion 4) | – | – | 16.3 | –
16 | UGCAUGCUAGGAUAUACGGGACAUUAGGGUUCGUCGUGUGGACAUGAGGAUCACCCAUGUAGAAGGAGCGUGCU [Mod3 of JL-ex2-2.15 mat747 mod] (puzzle: Exclusion 2) | – | – | 78.2 | –
17 | ACUUAUAGAGGAUAUACAGUUAAUUACAUGAGGAUCACCCAUGUUCUUCAAUGUAUAUAAGUAGAAGGCAAAGGAA [Mat - Exclusion 5 - Eli Mod - D3] (Eterna round: R97, puzzle: Exclusion 5) | 23.2 | 16.2 | – | –
18 | UUUAAUUUUUUUUUUUUACAAGCUUUUUGCUCGUCUUAUACAUGAGGAUCACCCAUGUGAGUGGAGGAUAAAUUAUC [JMF 34] (puzzle: Sensor v3, turn-off variant 2) | – | – | 29.2 | apparent KD of MS2 coat protein [3]: 19.4 nM; apparent KD of MS2 coat protein [4]: 20.4 nM
19 | CCAUCGUGUGUGAGGAUAUGCUGGUCCUUGGAUCAGCAGAAGGCACAUGAGGAUCACCCAUGUGAAGACGGUGG [JL bmx4 3.22] (puzzle: Brourd's mod of Exclusion 4) | – | – | 17.4 | apparent KD of MS2 coat protein [3]: 48.7 nM; apparent KD of MS2 coat protein [4]: 24.2 nM
20 | AGUCUGCGAGGAUAUACAUGAGGAUCACCCAUGUGCGAGAUACUAGUGAGGUCGAUUGGUAGAAGGCGCGGACG [Mat - Exclusion 3 - Mod of JL D85] (puzzle: Exclusion 3) | – | – | 93.1 | apparent KD of MS2 coat protein [3]: 86.4 nM; apparent KD of MS2 coat protein [4]: 67 nM
21 | UUCACAUGGACAUGAGAUCACAUGAGGAUCACCCAUGUGAAUAACAAGCUUUUUGUUCGUCUUAUGUCCAAUAAUAU [Stov1/14-D2] (Eterna round: R97, puzzle: Sensor, turn-off variant 1) | 13.7 | 10.5 | – | –
22 | UAAUGUAUAUAGGAUAUCUAGCUGGAAACAGCUAGAGAAGGAUGUACAUGAGGAUCACCCAUGUAAAUCGUGAA [Ex6/13-B1] (Eterna round: R97, puzzle: Exclusion 6) | 60.4 | 24.9 | – | –
23 | CCUGUACAUGAGGAUCACCCAUGUUAGGAUAUCUCGCCGUCGGCUUGCCGACGGUAUUAGAGAAGGGACAAGGG [JL Tixe mod 4] (puzzle: Exclusion 1) | – | – | 31 | –
24 | UCGCUCCGUGUAGGAUAUCGUUGUACCCUGCGGCGAGAAGGACAUGAGGAUCACCCAUGUAUGUUAUUAUCACGCGUGGCGCAC [Design 70] (Eterna round: R96, puzzle: Exclusion NG 1) | 15.4 | 21.6 | – | apparent KD of MS2 coat protein [1]: 15.5 nM
25 | AUUGUUUAUGUAGGAUAUGCCUGGCGUGCCUUUGCAGAAGGACAUGAGGAUCACCCAUGUAACAUGAGGCUCACCCAUGUCGCG [salish99_ExNG1_r04_113] (Eterna round: R96, puzzle: Exclusion NG 1) | 297 | 333 | – | apparent KD of MS2 coat protein [1]: 184 nM
